We go through two molecules from patent US20130064834A1 (published 2013).

Like-named read-outs stand apart in the source and are kept apart here. Some results are limits rather than exact numbers.

The target in one assay is T1, hPCSK9(D238R) (human, UniProt Q8NBP7 31-692).
T1 construct: mmh-tagged variant hPCSK9
Put plainly: SPR, mAb captured, 25C.

The target in assay [1] is T2, rat (Rattus norvegicus) PCSK9, myc-myc-his tagged (rat (Rattus norvegicus), UniProt P59996 31-691).
T2 construct: also called rPCSK9-mmh; rPCSK9
Put plainly: SPR, mAb amine-coupled, 37C, pH 5.5.
Description: (§1) Briefly, mAbs were immobilized onto BIACORE™ CM5 sensor chips via amine coupling.

The target of assay [2] is T3, mouse PCSK9, myc-myc-his tagged (mouse, UniProt Q80W65 35-694).
T3 construct: also called mPCSK9-mmh; mPCSK9
Put plainly: SPR, mAb amine-coupled, 37C, pH 5.5.
Description: as §1

Assay [3] addresses T2, rat (Rattus norvegicus) PCSK9, …. Put plainly: SPR, mAb amine-coupled, 25C, pH 5.5.
Description: as §1
Assay [4] deals with T3, mouse PCSK9, myc-myc-his tagged. Put plainly: SPR, mAb amine-coupled, 25C, pH 5.5.
Target sequence in this assay (Q80W65 35-694 limits assumed): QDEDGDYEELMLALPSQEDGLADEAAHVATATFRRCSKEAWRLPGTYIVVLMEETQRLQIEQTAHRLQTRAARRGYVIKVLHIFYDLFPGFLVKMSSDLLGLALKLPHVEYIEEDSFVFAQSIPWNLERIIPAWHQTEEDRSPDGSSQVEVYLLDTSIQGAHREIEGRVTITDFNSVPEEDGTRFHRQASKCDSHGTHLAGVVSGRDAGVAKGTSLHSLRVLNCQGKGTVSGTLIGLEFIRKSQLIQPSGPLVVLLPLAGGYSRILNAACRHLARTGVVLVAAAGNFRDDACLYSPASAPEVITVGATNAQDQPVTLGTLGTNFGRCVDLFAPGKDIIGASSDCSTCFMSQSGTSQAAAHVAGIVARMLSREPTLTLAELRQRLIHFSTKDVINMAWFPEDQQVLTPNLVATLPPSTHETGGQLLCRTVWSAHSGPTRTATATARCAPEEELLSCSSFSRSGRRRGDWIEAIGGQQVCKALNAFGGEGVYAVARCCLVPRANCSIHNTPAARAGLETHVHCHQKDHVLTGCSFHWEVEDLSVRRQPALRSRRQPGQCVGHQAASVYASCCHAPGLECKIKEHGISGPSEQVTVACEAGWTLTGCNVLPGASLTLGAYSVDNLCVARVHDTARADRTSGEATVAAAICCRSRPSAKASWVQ
Description: as §1
Assay [5] has as its target T4, his-tagged Syrian golden hamster (Mesocricetus auratus) PCSK9 (Syrian golden hamster (Mesocricetus …)).
T4 construct: also called maPCSK9-h; maPCSK9
T4 chain: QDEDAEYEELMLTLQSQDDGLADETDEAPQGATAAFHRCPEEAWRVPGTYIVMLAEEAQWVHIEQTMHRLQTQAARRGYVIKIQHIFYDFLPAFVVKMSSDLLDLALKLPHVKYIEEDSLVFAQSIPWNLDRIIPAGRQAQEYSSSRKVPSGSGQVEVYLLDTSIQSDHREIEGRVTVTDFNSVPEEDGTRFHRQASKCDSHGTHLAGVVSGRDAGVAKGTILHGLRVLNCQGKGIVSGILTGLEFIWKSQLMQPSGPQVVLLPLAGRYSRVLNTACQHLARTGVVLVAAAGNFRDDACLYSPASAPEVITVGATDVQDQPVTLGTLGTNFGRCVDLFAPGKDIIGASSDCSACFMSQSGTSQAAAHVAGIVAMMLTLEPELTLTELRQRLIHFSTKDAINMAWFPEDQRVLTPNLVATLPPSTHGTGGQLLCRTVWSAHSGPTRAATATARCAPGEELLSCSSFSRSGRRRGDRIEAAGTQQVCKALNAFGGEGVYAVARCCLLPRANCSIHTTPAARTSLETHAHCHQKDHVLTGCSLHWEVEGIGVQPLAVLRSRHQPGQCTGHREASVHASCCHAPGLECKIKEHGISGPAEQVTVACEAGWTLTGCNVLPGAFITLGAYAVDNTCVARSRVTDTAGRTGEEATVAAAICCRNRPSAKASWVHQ
Put plainly: SPR, mAb amine-coupled, 25C, pH 5.5.
Description: as §1

In assay [6] the target is T2, rat (Rattus norvegicus) PCSK9, …. Put plainly: SPR, mAb amine-coupled, 25C, pH 7.4.
Description: as §1
The target of assay [7] is T3, mouse PCSK9, myc-myc-his tagged. Put plainly: SPR, mAb amine-coupled, 25C, pH 7.4.
Description: as §1
For assay [8], the target named is T4, his-tagged Syrian golden hamster …. The assay is described as follows: SPR, mAb amine-coupled, 25C, pH 7.4.
Description: as §1
For assay [9], the target named is T5, hPCSK9(D374Y)-mmh (human, UniProt Q8NBP7 31-692).
T5 construct: also called hPCSK(D374Y)-mmh
Put plainly: SPR, mAb captured on anti-hFc, 25C.

For assay [10], the target named is T4, his-tagged Syrian golden hamster …. Put plainly: SPR, mAb captured on anti-hFc, 25C.
Assay [11] addresses T6, tagged rhesus monkey (Macaca mulata) PCSK9 (rhesus monkey (Macaca mulata), UniProt A8T666 31-692).
T6 construct: also called mmPCSK9-mmh; mmPCSK9
Put plainly: SPR, mAb captured on anti-hFc, 25C.

The target in assay [12] is T2, rat (Rattus norvegicus) PCSK9, …. The assay is described as follows: SPR, mAb amine-coupled, 37C, pH 7.4.
Description: as §1
Assay [13] deals with T3, mouse PCSK9, myc-myc-his tagged. The assay is described as follows: SPR, mAb amine-coupled, 37C, pH 7.4.
Description: as §1
Assay [14] addresses T4, his-tagged Syrian golden hamster …. The assay is described as follows: SPR, mAb amine-coupled, 37C, pH 7.4.
Description: as §1
In the next assay the target is T7, hPCSK9(E366K) (human, UniProt Q8NBP7 31-692).
T7 construct: mmh-tagged variant hPCSK9
Put plainly: SPR, mAb captured, 25C.

Assay [15] concerns the target T5, hPCSK9(D374Y)-mmh. The assay is described as follows: SPR, mAb captured on anti-hFc, 25C. This is another data set of the same source.
A further assay deals with T8, Human PCSK9-myc-myc-his (human, UniProt Q8NBP7 31-692).
T8 construct: also called hPCSK9-mmh; hPCSK9
Put plainly: SPR, mAb captured on anti-hFc, 25C.

Assay [16] addresses T9, cynomolgus monkey (Macaca fascicularis) PCSK9, myc-myc-his tagged (cynomolgus monkey (Macaca fascicularis), UniProt A8T662 31-692 (Macaca nemestrina entry), limits assumed).
T9 construct: also called mfPCSK9-mmh; mfPCSK9
Put plainly: SPR, mAb captured on anti-hFc, 25C.

The target of assay [17] is T6, tagged rhesus monkey (Macaca mulata) …. Put plainly: SPR, mAb captured on anti-hFc, 25C. This is another data set of the same source.

T6 sequence (A8T666 31-692 limits assumed): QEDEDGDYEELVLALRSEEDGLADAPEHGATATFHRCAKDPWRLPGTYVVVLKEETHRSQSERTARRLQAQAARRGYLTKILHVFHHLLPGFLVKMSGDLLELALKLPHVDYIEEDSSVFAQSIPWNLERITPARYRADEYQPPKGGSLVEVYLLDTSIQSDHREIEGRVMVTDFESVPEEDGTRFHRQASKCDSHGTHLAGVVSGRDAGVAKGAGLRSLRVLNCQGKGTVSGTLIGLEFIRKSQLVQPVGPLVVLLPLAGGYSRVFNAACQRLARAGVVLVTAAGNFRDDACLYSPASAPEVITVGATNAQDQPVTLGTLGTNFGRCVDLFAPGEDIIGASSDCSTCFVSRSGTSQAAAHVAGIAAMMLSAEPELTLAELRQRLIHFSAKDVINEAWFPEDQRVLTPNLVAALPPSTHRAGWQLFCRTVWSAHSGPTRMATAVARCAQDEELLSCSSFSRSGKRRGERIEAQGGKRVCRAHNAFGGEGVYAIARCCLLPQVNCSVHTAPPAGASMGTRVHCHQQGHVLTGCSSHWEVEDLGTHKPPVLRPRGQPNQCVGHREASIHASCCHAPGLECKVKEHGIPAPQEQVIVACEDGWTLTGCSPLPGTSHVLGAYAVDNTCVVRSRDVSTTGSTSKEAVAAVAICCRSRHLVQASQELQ
T2 sequence (P59996 31-691 limits assumed): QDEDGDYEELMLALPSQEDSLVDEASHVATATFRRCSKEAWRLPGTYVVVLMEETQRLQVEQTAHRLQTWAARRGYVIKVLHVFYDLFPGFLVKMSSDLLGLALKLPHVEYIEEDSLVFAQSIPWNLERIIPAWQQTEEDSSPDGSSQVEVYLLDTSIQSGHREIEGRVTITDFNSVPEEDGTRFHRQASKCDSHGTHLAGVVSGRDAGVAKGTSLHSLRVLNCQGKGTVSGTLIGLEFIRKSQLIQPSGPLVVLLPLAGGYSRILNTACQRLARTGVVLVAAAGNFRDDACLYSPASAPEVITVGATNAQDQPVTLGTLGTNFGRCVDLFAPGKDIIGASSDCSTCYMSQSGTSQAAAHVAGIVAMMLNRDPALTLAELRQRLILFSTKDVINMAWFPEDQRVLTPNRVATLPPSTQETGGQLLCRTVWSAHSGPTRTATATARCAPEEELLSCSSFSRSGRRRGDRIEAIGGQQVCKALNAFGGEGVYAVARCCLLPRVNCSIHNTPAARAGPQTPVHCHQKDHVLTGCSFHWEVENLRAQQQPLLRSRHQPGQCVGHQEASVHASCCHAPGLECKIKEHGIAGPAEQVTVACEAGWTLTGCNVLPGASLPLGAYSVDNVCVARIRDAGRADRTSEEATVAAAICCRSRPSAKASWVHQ
T9 sequence (A8T662 31-692 limits assumed): as the sequence (A8T666 31-692 limits assumed) above, with P607A, K639E counted along it
Description for hPCSK9(D238R): (§2) Each selected antibody was captured on a F(ab′)2 anti-hIgG surface created through direct chemical coupling to a BIACORE™ chip to form a captured antibody surface.
Description for hPCSK9(E366K): as §2

B1: H1H316P (antibody, V domains shown)
VH: EVQLVESGGGLVQPGGSLRLSCAASGFTFNNYAMNWVRQAPGKGLDWVSTISGSGGTTNYADSVKGRFIISRDSSKHTLYLQMNSLRAEDTAVYYCAKDSNWGNFDLWGRGTLVTVSS
VL: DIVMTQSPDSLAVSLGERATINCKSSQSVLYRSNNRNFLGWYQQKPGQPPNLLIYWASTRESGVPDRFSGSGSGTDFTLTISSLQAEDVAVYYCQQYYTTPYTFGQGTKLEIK
notes: Fully human mAb made in CHO cells; also called mAb316P
As to B1, in the assay with hPCSK9(D238R), the “fold reduction of binding affinity against wildtype hPCSK9” value is more than 400 fold. In addition, the “fold shortening of T1/2 against wildtype hPCSK9” value with hPCSK9(D238R) was approximately 30 fold. Besides, the Kd in [1] was determined as 0.399 nM; in [2] it was 13.6 nM; in assay [3], 0.349 nM; in assay [4], 0.063 nM; in [5], 0.087 nM; in [6], 24.1 nM. The Kd in assay [7] turned out to be 4.46 nM; in assay [8], 8.35 nM; with hPCSK9(D374Y)-mmh [9] it was 1.69 nM; in assay [10] it was 6.81 nM; in assay [11], 0.55 nM; in assay [12], 55.1 nM. Also, the equilibrium dissociation constant (Kd) in assay [13] turned out to be 12.2 nM; in assay [14], 21.7 nM. Further, the T1/2 was determined as 1 min in [1]; 3 min in assay [2]; 5 min in [3]; 11 min in assay [4]; 8 min in [5]; 2 min in assay [6]. The T1/2 in [7] is 10 min; in assay [8], 8 min; with hPCSK9(D374Y)-mmh [9] it was 15 min; in assay [10], 5 min; in [11], 92 min; in [12], 2 min. The values for the T1/2 in assay [13] and in assay [14] were 3 min and 2 min, respectively.

B2: H1M300N (antibody, V domains shown)
VH: EMQLVESGGGLVQPGGSLRLSCAASGFTFSSHWMKWVRQAPGKGLEWVANINQDGSEKYYVDSVKGRFTISRDNAKNSLFLQMNSLRAEDTAVYYCARDIVLMVYDMDYYYYGMDVWGQGTTVTVSS
VL: not shown
notes: Fully human version made in CHO cells
Take B2: the “fold reduction of binding against wildtype hPCSK9” value in the assay with hPCSK9(E366K) was approximately 50 fold. For the same molecule, the Kd with hPCSK9(D374Y)-mmh [15] is 0.9 nM; with Human PCSK9-myc-myc-his it was 0.74 nM; in assay [16], 1.5 nM; in assay [17] it was 0.61 nM. The T1/2 with hPCSK9(D374Y)-mmh [15] stood at 65 min; in the assay with Human PCSK9-myc-myc-his it was 110 min; in [16] it was 45 min; in [17], 79 min.
